Results published in patent US20170095417A1, “Percutaneous Implement and Method for Manufacturing” (priority 2015, published 2017).
Blank lines part the entries; values can stand above or below the molecule they belong to.

Experiments:
[1] = tested on: rat; test: Micro payload injected in rat, hypotension and dye distribution (Example 5); assay type: in vivo; conditions: half-shell Maltose cone mixed 1 mg Alprostadil, indicates vasodilation
Method: A sample of micro payload integrated a 1 mm length conic micro-head with drug and 2 mm length micro-stem without drug was injected in rat.

[2] = tested on: skin; conditions: in vivo
[3] = tested on: skin; conditions: rat, in vivo
Text: (§1) Quadrangular pyramidal micro-head of 0.7 mm length and 0.1 mm bottom side length was contained anhydrous and amorphous oblate spheroidal Maltose chip of 0.02 mm length and 0.01 mm diameter. The chip was made from mixing material of 50% Maltose and 50% Hyaluronic acid included 30% albumen which was non-heat resistance limited in 70 degree centigrade. Three micro-heads were installed in three lengths of micro implements of 1 mm, 2 mm, and 3 mm.

[4] = assay type: physicochemical
Text: as §1

Molecule: CCCCC[C@H](O)/C=C/[C@H]1[C@H](O)CC(=O)[C@@H]1CCCCCCC(=O)O [Alprostadil]
- hypotension [1]: 20 mmHg

- transfer of chip into skin [2]: completely transferred into skin
Molecule: Hyaluronic acid

Molecule: albumin
- aggregation depths versus implement length [3]: corresponded to the three length respectively
- deposition in skin [3]: albumin aggregation in skin
- heat stability in forming process [4]: resisted temperature of the micro implement forming process
